Reference: PMC3897949

Molecular target: PCAF HAT domain (amino acids 493-658), His-tagged (human), Q92831
Test: SEC-MALS; protein at 2, 6 and 20 mg/ml on a size exclusion column (WTC-010S5); 50 mM phosphate buffer pH 7.0, 150 mM NaCl, 35°C; monomer to dimer
Settings: remark: other sources report otherwise

stoichiometry N: 2
B1: PCAF HAT domain (amino acids 493-658), His-tagged, Q92831 493-658 (domain or fragment)
chain: VIEFHVVGNSLNQKPNKKILMWLVGLQNVFSHQLPRMPKEYITRLVFDPKHKTLALIKDGRVIGGICFRMFPSQGFTEIVFCAVTSNEQVKGYGTHLMNHLKEYHIKHDILNFLTYADEYAIGYFKKQGFSKEIKIPKTKYVGYIKDYEGATLMGCELNPRIPYTE
